Results on seven molecules are retold here after paper PMC9061725, “GGDEF domain as spatial on-switch for a phosphodiesterase by interaction with landmark protein HubP” (NPJ Biofilms and Microbiomes, 2022).

By stoichiometry N is commonly meant the number of molecules, sites or subunits per partner or assembly.

B1: MBP-GGDEF_(SoPdeB), GGDEF domain of S. oneidensis PdeB, wild type (domain or fragment, UniProt Q8EJM6 454-587, looked up)
chain: RSLAVCYLDLEQFKLINDSCGHTAGDRMLAMVARAIQSCLGPQELLARIGGDEFGLVICDRTALAVAQLLKQIIAQVSLQVLHDKNCNYKVGLSIGVAFGRAPYINAQELLKDADIACIAAKAKGTNQIHIYDD
notes: GGDEF (diguanylate cyclase) domain of the phosphodiesterase PdeB of Shewanella oneidensis; construct limits may stand there; The MBP tag is named for SEC, iSCAMS and pull-down; also called SoGGDEF; SoGGDEF_(PdeB); source: E. coli BL21(DE3), pET24c, purified (His Trap, SEC)

Test [1] concerns the target FimV domain of S. putrefaciens HubP (S. putrefaciens).
A further test concerns the target T1, MshE-N (Shewanella putrefaciens, UniProt A0ABX8XDM4).
T1 construct: gene tadA; N-terminal domain aa 2-145, His-tag purified from E. coli BL21(DE3); strain inferred from locus prefix Sputcn32
The test is described as follows: isothermal titration calorimetry. To be noted: 25 °C; one set of binding sites; value only in figure; read-out: dissociation constant. The source says: isothermal titration calorimetry on MshE-N | both MshE and MshE-N bind c-di-GMP with high affinity
A general note: Isothermal titration calorimetry measures the heat released or taken up as one component is titrated into another.

The next test addresses T2, MshE (Shewanella putrefaciens, UniProt A0ABX8XDM4).
T2 construct: gene tadA; full-length, His-tag purified from E. coli BL21(DE3); strain inferred from locus prefix Sputcn32
T2 sequence (A0ABX8XDM4 1-586): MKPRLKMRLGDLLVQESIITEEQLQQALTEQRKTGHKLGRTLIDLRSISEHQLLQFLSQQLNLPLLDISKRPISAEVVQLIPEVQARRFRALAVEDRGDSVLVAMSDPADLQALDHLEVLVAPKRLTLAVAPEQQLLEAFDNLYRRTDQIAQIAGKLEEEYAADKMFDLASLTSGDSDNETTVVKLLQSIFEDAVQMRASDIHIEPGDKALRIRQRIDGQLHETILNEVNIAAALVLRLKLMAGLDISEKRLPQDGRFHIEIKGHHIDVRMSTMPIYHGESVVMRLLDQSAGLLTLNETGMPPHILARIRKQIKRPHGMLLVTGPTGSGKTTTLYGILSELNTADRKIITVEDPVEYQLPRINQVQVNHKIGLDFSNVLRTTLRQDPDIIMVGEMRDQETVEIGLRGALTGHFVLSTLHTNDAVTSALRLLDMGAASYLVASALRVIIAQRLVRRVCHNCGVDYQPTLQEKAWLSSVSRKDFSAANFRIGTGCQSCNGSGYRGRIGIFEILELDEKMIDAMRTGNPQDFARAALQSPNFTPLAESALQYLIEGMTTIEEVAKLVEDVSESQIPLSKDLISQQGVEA
As to the kind of experiment: isothermal titration calorimetry. As to conditions: 25 °C; one set of binding sites; value only in figure; read-out: dissociation constant. An excerpt: isothermal titration calorimetry on MshE | both MshE and MshE-N bind c-di-GMP with high affinity

The target of test [2] is T3, FimV domain of S. oneidensis HubP (S. oneidensis, biotinylated with EZ-Link NHS-PEG4-biotin (for the BLI assay only)).
T3 chain: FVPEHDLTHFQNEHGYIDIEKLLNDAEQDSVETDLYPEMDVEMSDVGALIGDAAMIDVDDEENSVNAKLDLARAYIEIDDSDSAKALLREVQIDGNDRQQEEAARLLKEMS
The test is described as follows: interferometric scattering mass spectrometry (iSCAMS, mass photometry); MBP-GGDEF_(SoPdeB)/FimV_(HubP) complex, samples prepared at 1 µM, low-salt HEPES buffer (20 mM HEPES, 50 mM NaCl, 50 mM KCl, 5 mM MgCl2, pH 7.5), room temperature. To be noted: both partners purified.

Test [3] has as its target T3, FimV domain of S. oneidensis HubP. As to the kind of experiment: BLI; biotinylated SoFimV held on streptavidin biosensors (BLITZ), SoGGDEF variants as analyte; medium salt HEPES buffer pH 7.5 for association only, high-salt Tris buffer pH 8 for association-dissociation. To be noted: both partners purified. Background: Biolayer interferometry detects binding as a change in optical thickness at a sensor tip.

For the next test, the target named is T4, SoGGDEF_(PdeB) Q525S (S. oneidensis, UniProt Q8EJM6 454-587, Q525S).
T4 sequence: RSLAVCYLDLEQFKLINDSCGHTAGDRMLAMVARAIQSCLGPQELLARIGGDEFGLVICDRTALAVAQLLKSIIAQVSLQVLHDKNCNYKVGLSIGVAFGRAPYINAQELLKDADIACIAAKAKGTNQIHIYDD
As to the kind of experiment: BLI.

The next test concerns the target T5, SoGGDEF_(PdeB) G494A (S. oneidensis, UniProt Q8EJM6 454-587, G494A).
T5 sequence: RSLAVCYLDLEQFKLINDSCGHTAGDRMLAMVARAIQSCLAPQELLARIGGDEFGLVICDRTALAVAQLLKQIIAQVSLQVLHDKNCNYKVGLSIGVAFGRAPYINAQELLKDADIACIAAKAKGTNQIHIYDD
The test is described as follows: BLI.

The target of a further test is T6, SoGGDEF_(PdeB) E497S (S. oneidensis, UniProt Q8EJM6 454-587, E497S).
T6 sequence: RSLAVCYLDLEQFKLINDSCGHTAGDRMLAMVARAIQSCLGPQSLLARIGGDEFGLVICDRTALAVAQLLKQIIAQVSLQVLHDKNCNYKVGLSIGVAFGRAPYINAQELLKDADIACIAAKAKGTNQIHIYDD
As to the kind of experiment: BLI.

In another test the target is T7, SoGGDEF_(PdeB) K575S (S. oneidensis, UniProt Q8EJM6 454-587, K575S).
T7 sequence: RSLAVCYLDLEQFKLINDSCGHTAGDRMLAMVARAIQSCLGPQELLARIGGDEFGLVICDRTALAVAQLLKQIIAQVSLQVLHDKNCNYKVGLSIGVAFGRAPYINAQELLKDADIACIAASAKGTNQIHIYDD
As to the kind of experiment: BLI.

Another test concerns the target T8, SoGGDEF_(PdeB) K577S (S. oneidensis, UniProt Q8EJM6 454-587, K577S).
T8 sequence: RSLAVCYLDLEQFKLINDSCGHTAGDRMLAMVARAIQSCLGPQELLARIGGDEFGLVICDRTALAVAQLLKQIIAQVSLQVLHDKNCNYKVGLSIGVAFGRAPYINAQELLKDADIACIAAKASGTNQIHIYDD
The test is described as follows: BLI.

In test [4] the target is B1. The test is described as follows: BLI; biotinylated SoFimV held on streptavidin biosensors (BLITZ), SoGGDEF variants as analyte; medium salt HEPES buffer pH 7.5 for association only, high-salt Tris buffer pH 8 for association-dissociation. As to conditions: both partners purified.

Molecule “S. putrefaciens PdeB-mVenus K527E/Q528S (natural protein)” had a single-molecule tracking of PdeB-mVenus K527E/Q528S in S. putrefaciens cells: share of static molecules in test [1] of 61%.

Regarding `Nc1nc2c(ncn2[C@@H]2O[C@@H]3CO[P@](=O)(O)O[C@H]4[C@@H](O)[C@H](n5cnc6c(=O)[nH]c(N)nc65)O[C@@H]4CO[P@](=O)(O)O[C@H]3[C@H]2O)c(=O)[nH]1` [c-di-GMP], the Kd on MshE-N worked out at 4000 nM; on MshE, 9000 nM. With “MBP-GGDEF_(PdeB), GGDEF domain of S. putrefaciens PdeB (domain or fragment)”, the single-molecule tracking of PdeB-mVenus in S. putrefaciens cells: share of molecules statically confined to the cell pole in [1] was 84%. With B1, the “stoichiometry N” value in test [2] was ~1 GGDEF per FimV (2:2).

B2: SoGGDEF_(PdeB) K575S (domain or fragment, S. oneidensis, UniProt Q8EJM6 454-587, looked up)
chain: RSLAVCYLDLEQFKLINDSCGHTAGDRMLAMVARAIQSCLGPQELLARIGGDEFGLVICDRTALAVAQLLKQIIAQVSLQVLHDKNCNYKVGLSIGVAFGRAPYINAQELLKDADIACIAASAKGTNQIHIYDD
notes: GGDEF domain of PdeB of Shewanella oneidensis with K575S; Variant of m1; the methods of the pull-down call the GGDEF variants MBP-tagged; source: E. coli BL21(DE3), pET24c, purified (His Trap, SEC)
With B2, the “fold increase of KD against the wild type” value in test [3] was determined as 100 fold.

B3: SoGGDEF_(PdeB) K577S (domain or fragment, S. oneidensis, UniProt Q8EJM6 454-587, looked up)
chain: RSLAVCYLDLEQFKLINDSCGHTAGDRMLAMVARAIQSCLGPQELLARIGGDEFGLVICDRTALAVAQLLKQIIAQVSLQVLHDKNCNYKVGLSIGVAFGRAPYINAQELLKDADIACIAAKASGTNQIHIYDD
notes: GGDEF domain of PdeB of Shewanella oneidensis with K577S; Variant of m1; the methods of the pull-down call the GGDEF variants MBP-tagged; source: E. coli BL21(DE3), pET24c, purified (His Trap, SEC)
As to B3, in test [3], the “fold increase of KD against the wild type” value amounted to 10 fold.

B4: FimV domain of S. oneidensis HubP (domain or fragment)
chain: FVPEHDLTHFQNEHGYIDIEKLLNDAEQDSVETDLYPEMDVEMSDVGALIGDAAMIDVDDEENSVNAKLDLARAYIEIDDSDSAKALLREVQIDGNDRQQEEAARLLKEMS
modifications: biotinylated with EZ-Link NHS-PEG4-biotin (for the BLI assay only)
For the molecule B4, the Kd was 592 nM in the test with SoGGDEF_(PdeB) Q525S; 835 nM with SoGGDEF_(PdeB) G494A; 299 nM with SoGGDEF_(PdeB) E497S; 22000 nM in the test with SoGGDEF_(PdeB) K575S; 2720 nM in the test with SoGGDEF_(PdeB) K577S; roughly 200 nM in [4].
